This note sets out measurements from patent US20240254260A1 (ISU ABXIS, published 2024).

This assay deals with T1, ASM protein present in the blood plasma of APP/PS1 mice (mouse, UniProt Q04519 45-626, limits assumed).
T1 sequence: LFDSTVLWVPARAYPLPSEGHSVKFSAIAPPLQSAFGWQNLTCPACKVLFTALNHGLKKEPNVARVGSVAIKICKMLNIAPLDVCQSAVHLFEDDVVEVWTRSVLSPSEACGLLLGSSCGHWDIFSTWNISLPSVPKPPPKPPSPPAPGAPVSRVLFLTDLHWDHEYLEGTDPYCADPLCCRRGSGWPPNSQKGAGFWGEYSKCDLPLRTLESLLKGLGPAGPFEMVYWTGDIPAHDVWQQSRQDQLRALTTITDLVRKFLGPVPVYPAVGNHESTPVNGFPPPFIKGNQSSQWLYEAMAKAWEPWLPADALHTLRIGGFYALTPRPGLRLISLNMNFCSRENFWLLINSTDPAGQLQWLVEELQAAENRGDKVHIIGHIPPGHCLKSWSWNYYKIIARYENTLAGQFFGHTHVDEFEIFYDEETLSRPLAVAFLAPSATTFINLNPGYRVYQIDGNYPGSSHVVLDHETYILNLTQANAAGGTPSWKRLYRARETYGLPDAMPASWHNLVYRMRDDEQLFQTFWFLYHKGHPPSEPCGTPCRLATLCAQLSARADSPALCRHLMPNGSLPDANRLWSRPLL
Briefly: cell-based or functional assay.

B1: antibody #9104 (antibody, mouse IgG1, V domains shown)
VH: EVQLLESGGGLVQPGGSLRLSCAASGFTFSNYYMSWVRQAPGKGLEWVSGIYYGSGNIYYADSVKGRFTISRDNSKNTLYLQMNSLRAEDTAVYYCARDTPGFDYWGQGTLVTVSS
VL: QSVLTQPPSASGTPGQRVTISCTGSSSNIGNNAVNWYQQLPGTAPKLLIYYDSHRPSGVPDRFSGSKSGTSASLAISGLRSEDEADYYCGAWDYSLSAYVFGGGTKLTVLG
Take B1: the “activity of the ASM protein in blood plasma of APP/PS1 mice after administration of 50 mg/kg antibody (UPLC), relative to the negative control group” value is around 64%.
